Paper PMC8517857, “BusR senses bipartite DNA binding motifs by a unique molecular ruler architecture” (Nucleic Acids Research, 2021)

Legend:
[1] = molecular target: His6-RCK_C domain of S. agalactiae BusR (Leu135 to end) (Streptococcus agalactiae); test: SAXS; isolated RCK_C domain in the absence of c-di-AMP; batch mode or SEC-SAXS, P12 beamline, PETRA III
[2] = molecular target: His6-RCK_C domain of S. agalactiae BusR (Leu135 to end) (Streptococcus agalactiae); test: crystal structure; apo His6-RCK_C, 6 mg/mL, 0.1 M Bis-Tris pH 6.5, 18% PEG MME 5000, 20°C; 1 Å; dimer by a symmetry related copy
[3] = molecular target: selenomethionine substituted full-length BusR from Streptococcus agalactiae (Streptococcus agalactiae); test: crystal structure; selenomethionine full-length BusR, apo, 7 mg/ml, 150 mM magnesium-acetate, 6% D+trehalose, 20°C; SAD, 2.8 Å
BusR = molecular target: T1, BusR (Streptococcus agalactiae, UniProt K0JNC6); test: ITC; […] Å co-crystal structure of the RCK_C domain; cryo-EM of the BusR:c-di-AMP:DNA complex; type: binding
T1 construct: gene BM110_ORF1201; full-length BusR (ITC)

[4] = molecular target: BusR from Streptococcus agalactiae (full length) (Streptococcus agalactiae); test: SAXS; full length BusR in 20 mM HEPES pH 7.5, 200 mM NaCl, 3% glycerol; P12 beamline, PETRA III
[5] = molecular target: BusR from Streptococcus agalactiae (full length) (Streptococcus agalactiae); test: cryo-EM structure; BusR with c-di-AMP (100 μM) and operator DNA (pAB, 4.5 Å; pAB1, 7.1 Å), 20 mM HEPES pH 6.5, 100 mM NaCl
[6] = molecular target: BusR from Streptococcus agalactiae (full length) (Streptococcus agalactiae); test: SEC-MALS; SEC-coupled right angle light scattering (SEC-RALS), Superdex S200 10/300 increase, 20°C, buffer SEC (30 mM NaPi pH 6.5, 200 mM NaCl, 3% glycerol); BusR alone (apo) and with c-di-AMP
[7] = molecular target: RCK_C domain of S. agalactiae BusR (Leu135 to end), no His6-tag (Streptococcus agalactiae); test: crystal structure; RCK_C (no His6-tag), 4.5 mg/mL, co-crystallised with 1 mM c-di-AMP, 100 mM sodium-acetate pH 4.6, 3% PEG 4000, 20°C; 1.2 Å
BusR wt [8] = molecular target: T2, BusR wt (Streptococcus agalactiae DSM 16828, UniProt K0JNC6 1-213); test: EMSA; 10 uM c-di-AMP, 100 nM BusR; EMSA: 100 mM KPi pH 6.5, 20 mM KCl, 30 min 20 C, 20 nM DNA, gel at 8 C; SPR: 100 mM NaPi pH 6.5, 20 mM KCl, 200 mM NaCl, 3 mM EDTA, 0.05% P20; BusR concentrations as tetramer; conditions: protein: recombinant; tags: His6-MBP removed with PreScission protease; chain copies: 4; label: 5'-6-FAM on strand 1; blunt
T2 sequence: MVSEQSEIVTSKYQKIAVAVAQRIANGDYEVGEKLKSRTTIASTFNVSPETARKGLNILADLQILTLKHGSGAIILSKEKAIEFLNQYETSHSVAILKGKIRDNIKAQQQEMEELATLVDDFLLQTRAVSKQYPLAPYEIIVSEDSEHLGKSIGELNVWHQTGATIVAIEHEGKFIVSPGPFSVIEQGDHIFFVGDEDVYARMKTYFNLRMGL

BusR wt [9] = molecular target: T2, BusR wt; test: cryo-EM; c-di-AMP; 7.1 A; EMSA: 100 mM KPi pH 6.5, 20 mM KCl, 30 min 20 C, 20 nM DNA, gel at 8 C; SPR: 100 mM NaPi pH 6.5, 20 mM KCl, 200 mM NaCl, 3 mM EDTA, 0.05% P20; BusR concentrations as tetramer; conditions: protein: recombinant; tags: His6-MBP removed with PreScission protease; chain copies: 4; blunt
BusR W159A [10] = molecular target: T3, BusR W159A (Streptococcus agalactiae DSM 16828, UniProt K0JNC6 1-213, W159A); test: SPR; no c-di-AMP; EMSA: 100 mM KPi pH 6.5, 20 mM KCl, 30 min 20 C, 20 nM DNA, gel at 8 C; SPR: 100 mM NaPi pH 6.5, 20 mM KCl, 200 mM NaCl, 3 mM EDTA, 0.05% P20; BusR concentrations as tetramer; conditions: protein: recombinant; tags: His6-MBP removed with PreScission protease; chain copies: 4; blunt
BusR W159A [11] = molecular target: T3, BusR W159A; test: SPR; 10 uM c-di-AMP; EMSA: 100 mM KPi pH 6.5, 20 mM KCl, 30 min 20 C, 20 nM DNA, gel at 8 C; SPR: 100 mM NaPi pH 6.5, 20 mM KCl, 200 mM NaCl, 3 mM EDTA, 0.05% P20; BusR concentrations as tetramer; conditions: protein: recombinant; tags: His6-MBP removed with PreScission protease; chain copies: 4; blunt
BusR wt [12] = molecular target: T2, BusR wt; test: as above; conditions: protein: recombinant; tags: His6-MBP removed with PreScission protease; chain copies: 4; blunt

His6-RCK_C domain of S. agalactiae BusR (Leu135 to end) (domain or fragment)
stoichiometry N [1]: 2 | stoichiometry N [2]: 2

selenomethionine substituted full-length BusR from Streptococcus agalactiae (natural protein)
stoichiometry N [3]: 4

Nc1ncnc2c1ncn2[C@@H]1O[C@@H]2COP(=O)(O)O[C@H]3[C@@H](O)[C@H](n4cnc5c(N)ncnc54)O[C@@H]3COP(=O)(O)O[C@H]2[C@H]1O [c-di-AMP]
Kd (BusR): 112 ± 7 nM

BusR from Streptococcus agalactiae (full length) (natural protein)
stoichiometry N [4]: 4 | stoichiometry N [5]: 4 | stoichiometry N [6]: 4

RCK_C domain of S. agalactiae BusR (Leu135 to end), no His6-tag (domain or fragment)
stoichiometry N [7]: 2

B1: pAB1 +5bp (dsDNA)
DNA 1: ATAAAGTGACGTTAAAGTATCGTCGATTAAAAGGGTAGTCACTTTTTTACT
DNA 2: AGTAAAAAAGTGACTACCCTTTTAATCGACGATACTTTAACGTCACTTTAT
binding result (BusR wt [8]): no binding

B2: pAB1 -10bp (dsDNA)
DNA 1: ATAAAGTGACGTTAAAAGGGTAGTCACTTTTTTACT
DNA 2: AGTAAAAAAGTGACTACCCTTTTAACGTCACTTTAT
binding result (BusR wt [8]): no binding

B3: pAB1_EM (dsDNA)
DNA 1: CGGTAAAGTGACGTTAAAGTATCGTAAAAGGGTAGTCACTTTTCGG
DNA 2: CCGAAAAGTGACTACCCTTTTACGATACTTTAACGTCACTTTACCG
binding result (BusR wt [9]): binds

B4: pAB1 (SPR) (dsDNA)
DNA 1: ATAAAGTGACGTTAAAGTATCGTAAAAGGGTAGTCACTTTTTTACT
DNA 2: AGTAAAAAAGTGACTACCCTTTTACGATACTTTAACGTCACTTTAT
Kd (BusR W159A [10]): 11 ± 2 nM | Kd (BusR W159A [11]): 34 ± 8 nM | Kd (BusR wt [12]): 5.1 ± 0.4 nM

B5: pAB1 1BS-A (dsDNA)
DNA 1: ATAAAGTATGGTTAAAGTATCGTAAAAGGGTAGTCACTTTTTTACT
DNA 2: AGTAAAAAAGTGACTACCCTTTTACGATACTTTAACCATACTTTAT
binding result (BusR wt [8]): no binding

B6: pAB1 1BS-B (dsDNA)
DNA 1: ATAAAGTGACGTTAAAGTATCGTAAAAGGGTACATACTTTTTTACT
DNA 2: AGTAAAAAAGTATGTACCCTTTTACGATACTTTAACGTCACTTTAT
binding result (BusR wt [8]): no binding

B7: pAB1 0BS (dsDNA)
DNA 1: ATAAAGTATGGTTAAAGTATCGTAAAAGGGTACATACTTTTTTACT
DNA 2: AGTAAAAAAGTATGTACCCTTTTACGATACTTTAACCATACTTTAT
binding result (BusR wt [8]): no binding
